Data from patent US20110124560A1 (University of Pennsylvania, published 2011).

B1: FOXP3 delK250 mutant (other, human, UniProt Q9BZS1 1-431, looked up, not shown: small tags and cut ends)
chain: MPNPRPGKPSAPSLALGPSPGASPSWRAAPKASDLLGARGPGGTFQGRDLRGGAHASSSSLNPMPPSQLQLPTLPLVMVAPSGARLGPLPHLQALLQDRPHFMHQLSTVDAHARTPVLQVHPLESPAMISLTPPTTATGVFSLKARPGLPPGINVASLEWVSREPALLCTFPNPSAPRKDSTLSAVPQSSYPLLANGVCKWPGCEKVFEEPEDFLKHCQADHLLDEKGRAQCLLQREMVQSLEQQLVLEEKLSAMQAHLAGKMALTKASSVASSDKGSCCIVAAGSQGPVVPAWSGPREAPDSLFAVRRHLWGSHGNSTFPEFLHNMDYFKFHNMRPPFTYATLIRWAILEAPEKQRTLNEIYHWFTRMFAFFRNHPATWKNAIRHNLSLHKCFVRVESEKGAVWTVDELEFRKKRSQRPSRCSNPTPGP
notes: Deletion, not a substitution: K250 is removed; also called myc-delK250 FOXP3a; FOXP3 K250 deletion mutant
B2: His-tagged full length FOXP3a (other, human, UniProt Q9BZS1 1-431, looked up)
chain: MPNPRPGKPSAPSLALGPSPGASPSWRAAPKASDLLGARGPGGTFQGRDLRGGAHASSSSLNPMPPSQLQLPTLPLVMVAPSGARLGPLPHLQALLQDRPHFMHQLSTVDAHARTPVLQVHPLESPAMISLTPPTTATGVFSLKARPGLPPGINVASLEWVSREPALLCTFPNPSAPRKDSTLSAVPQSSYPLLANGVCKWPGCEKVFEEPEDFLKHCQADHLLDEKGRAQCLLQREMVQSLEQQLVLEKEKLSAMQAHLAGKMALTKASSVASSDKGSCCIVAAGSQGPVVPAWSGPREAPDSLFAVRRHLWGSHGNSTFPEFLHNMDYFKFHNMRPPFTYATLIRWAILEAPEKQRTLNEIYHWFTRMFAFFRNHPATWKNAIRHNLSLHKCFVRVESEKGAVWTVDELEFRKKRSQRPSRCSNPTPGP
notes: Expressed in Sf9 insect cells, purified by Ni-NTA; also called Full length FOXP3a (the large isoform) with a 6x His tag; purified His-tagged FOXP3a; not shown: 6x His tag

Key:
[1] = target: the molecule itself; test: co-immunoprecipitation from transfected HEK293T cells
Source text: Full-length FOXP3 E251 and K250 deletion mutants were created by site-directed mutagenesis and subcloned into mammalian expression vectors containing either myc or HA epitope tags at the N-terminus. HEK293T cells were transfected with the myc-tagged wild type FOXP3, myc-tagged FOXP3-delE251, HA-tagged wild type FOXP3, or HA-tagged FOXP3-delE251 vectors as indicated (FIG. 2C). The HA-tagged wild type FOXP3 species was able to homo-associate with the myc-tagged wild type FOXP3, but not with the myc-tagged delE251 mutant, and vice versa (FIG. 2C). […] Thus the leucine zipper domain is essential for FOXP3 homo-association.

[2] = target: the molecule itself; test: gel filtration of purified protein, fractions immunoblotted with anti-FOXP3 221D (self-association)
Source text: FIG. 2A is an image of an immunoblot and a corresponding graph of the relative amounts of FOXP3a detected by the immunoblot. To generate the immunoblot, purified His-tagged FOXP3a was size fractionated by gel filtration, and the fractions were subject to immunoblotting with anti-FOXP3 antibody. ImageJ software (http://rsb.info.nih.gov/ij/) was used for relative quantification of the bands.
Full length FOXP3a (the large isoform) with a 6× His tag was expressed in Sf9 insect cells and purified by Ni-NTA column. The purified His-tagged full length FOXP3a was size fractionated, followed by SDS-PAGE and immunoblotting of the individual fractions with anti-FOXP3 mAb 221D. Purified full length FOXP3a eluted from the gel filtration column as a dominant mixture of monomers, dimers, tetramers, and a detectable amount of oligomeric species (FIG. 2A).

| Protein | binding result [1] | binding result [2] |
| --- | --- | --- |
| B1 | no binding | – |
| B2 | – | binds |
